This note sets out measurements from US20150204870A1.

Chain of SNA treated with PNGaseF (sugar chain-removed natural lectin) (Q41358 29-289): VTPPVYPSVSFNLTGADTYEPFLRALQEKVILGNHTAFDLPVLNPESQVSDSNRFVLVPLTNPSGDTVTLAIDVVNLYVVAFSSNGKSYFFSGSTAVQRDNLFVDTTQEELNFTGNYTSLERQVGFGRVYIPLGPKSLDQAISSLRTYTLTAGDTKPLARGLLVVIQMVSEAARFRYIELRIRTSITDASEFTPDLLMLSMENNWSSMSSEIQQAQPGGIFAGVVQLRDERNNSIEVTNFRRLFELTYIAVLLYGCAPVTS
Chain of SNA treated with PNGaseF (sugar chain-removed natural lectin) (Q41358 309-570): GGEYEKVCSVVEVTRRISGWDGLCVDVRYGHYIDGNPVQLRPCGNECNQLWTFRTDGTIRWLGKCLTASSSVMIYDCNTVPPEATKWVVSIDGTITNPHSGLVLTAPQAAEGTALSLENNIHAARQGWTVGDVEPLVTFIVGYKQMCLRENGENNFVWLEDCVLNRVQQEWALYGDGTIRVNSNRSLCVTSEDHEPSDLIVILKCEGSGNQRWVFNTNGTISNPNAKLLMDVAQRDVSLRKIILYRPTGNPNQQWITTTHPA
Chain of SNA (natural lectin, not treated with PNGaseF) (Q41358 29-289): as the sequence (Q41358 29-289) above
Chain of SNA (natural lectin, not treated with PNGaseF) (Q41358 309-570): as the sequence (Q41358 309-570) above

This assay addresses thyroglobulin.
As to “MCA (natural lectin, not treated with PNGaseF)”, the S/N Ratio came out at 3.1.

Consider “MCA treated with PNGaseF (sugar chain-removed natural lectin)”, for which the S/N Ratio is 6.5.

For the substance “SNA (natural lectin, not treated with PNGaseF)”, the S/N Ratio stood at 1.5.

Regarding “SNA treated with PNGaseF (sugar chain-removed natural lectin)”, the S/N Ratio worked out at 6.

On to “SSA (natural lectin, not treated with PNGaseF)”, for which the S/N Ratio turned out to be 1.9.

For “SSA treated with PNGaseF (sugar chain-removed natural lectin)”, the S/N Ratio worked out at 8.
